B1: HDV Ribozyme (parent)
chain: GGCCGGCAUGGUCCCAGCCUCCUCGCUGGCGCCGGCUGGGCAACAUUCCGAGGGGACCGUCCCCUCGGUAAUGGCGAAUGGGACCCA

Variants of: B1
Test: self-cleavage, relative activity (ratio to wild type); higher = more cleavage; co-transcriptional

Compared with G31C U37G, G31C G55C is higher in self-cleavage: 0.214 for the first, 0.327 for the second.

First: G31A A43U
Second: C32G C41G
The self-cleavage of the first is higher: 0.128 for the first, 0.0665 for the second.

First: C30U G74U
Second: C32A G74C
The self-cleavage of the first is higher: 0.131 for the first, 0.108 for the second.

Compared with G31A U69A, G31A U69G is lower in self-cleavage: 0.564 for the first, 0.284 for the second.

Going from G31A U47G to C30G G73A, the self-cleavage falls from 0.192 to 0.0455.

Compared with C30G G73C, C30A G59C is higher in self-cleavage: 0.0489 for the first, 0.58 for the second.

First: C32A C49U
Second: C32A C49G
The self-cleavage of the first is lower: 0.0997 for the first, 0.222 for the second.

First: G31C G38U
Second: C30U G82A
The self-cleavage of the first is lower: 0.123 for the first, 0.229 for the second.

Compared with C32G G68C, C32A G50C is higher in self-cleavage: 0 for the first, 0.262 for the second.

Going from C32A G50A to C32A C41U, the self-cleavage rises from 0.136 to 0.143.

Going from C30U G35C to G31U G35C, the self-cleavage falls from 0.185 to 0.141.

First: G31U A87U
Second: C30A G67C
The self-cleavage of the first is higher: 0.521 for the first, 0.318 for the second.

Going from G31C C63A to G31C C63U, the self-cleavage rises from 0.344 to 0.369.

Going from C32G A42G to C32G A42U, the self-cleavage rises from 0.0426 to 0.0594.

Compared with C30U C58U, C32G G59C is lower in self-cleavage: 0.743 for the first, 0.0923 for the second.

First: C30U U69G
Second: G31A C44U
The self-cleavage of the first is higher: 0.554 for the first, 0.0898 for the second.

First: C30U A42G
Second: C30U A42C
The self-cleavage of the first is higher: 0.156 for the first, 0.0282 for the second.

Going from G31C A87U to G31A C86A, the self-cleavage rises from 0.328 to 0.669.

First: G31A C86U
Second: C30U G40U
The self-cleavage of the first is higher: 0.69 for the first, 0.114 for the second.

Going from C30U G40C to C32A G52C, the self-cleavage rises from 0.0256 to 0.0831.

Compared with C32A G52A, G31C C48G is lower in self-cleavage: 0.302 for the first, 0.227 for the second.

First: G31U C48U
Second: G31U C48G
The self-cleavage of the first is higher: 0.619 for the first, 0.543 for the second.

Compared with C30G U37G, C30G C57U is higher in self-cleavage: 0 for the first, 0.0332 for the second.

Going from C30G C63U to C30G C63G, the self-cleavage rises from 0.0231 to 0.0923.

Compared with C32G U37G, C32A C61G is higher in self-cleavage: 0.0554 for the first, 0.248 for the second.

Going from C32A C61A to C32A C61U, the self-cleavage rises from 0.162 to 0.201.

First: C30U G76A
Second: G31C U69C
The self-cleavage of the first is higher: 0.862 for the first, 0.534 for the second.

First: G31C U69G
Second: G31C U79C
The self-cleavage of the first is higher: 0.394 for the first, 0.282 for the second.

Going from C30G U79A to C30G U79C, the self-cleavage falls from 0.156 to 0.0496.

First: C32G C85A
Second: C32G C85G
The self-cleavage of the first is lower: 0.0378 for the first, 0.111 for the second.

First: C32G C85U
Second: C30G A70G
The self-cleavage of the first is lower: 0.0692 for the first, 0.0739 for the second.

First: G31A G68C
Second: G31C C86G
The self-cleavage of the first is higher: 0.518 for the first, 0.188 for the second.

Going from C30A U72G to C30G G39C, the self-cleavage falls from 0.185 to 0.131.

Going from C30U U46C to C30U U46A, the self-cleavage rises from 0.0723 to 0.369.

Going from G31U G38C to G31U G38A, the self-cleavage falls from 0.148 to 0.109.

Going from G31C A70U to C32G C36G, the self-cleavage falls from 0.128 to 0.0449.

Compared with C30U A71C, C30A G73U is lower in self-cleavage: 0.404 for the first, 0.111 for the second.

First: G31A C84G
Second: C32G C63G
The self-cleavage of the first is higher: 0.119 for the first, 0.0831 for the second.

Going from C32G C63U to G31U A78U, the self-cleavage falls from 0.112 to 0.0744.

Going from G31U A78C to G31U A78G, the self-cleavage rises from 0.0297 to 0.0811.

First: G31A G40U
Second: G31A G40A
The self-cleavage of the first is lower: 0.112 for the first, 0.233 for the second.

Compared with C32G C86U, C30U A56C is higher in self-cleavage: 0.203 for the first, 0.772 for the second.

Compared with G31A G34C, G31A G34A is higher in self-cleavage: 0.0272 for the first, 0.0934 for the second.

Going from C30A U65G to C30A U65C, the self-cleavage rises from 0.441 to 0.644.

Going from C30A U65A to C32A A77G, the self-cleavage falls from 0.341 to 0.0426.

Going from C32A A77U to G31A A56U, the self-cleavage rises from 0.108 to 0.482.

Going from G31C A77G to C30U C36U, the self-cleavage falls from 0.306 to 0.244.

First: C32A C64U
Second: G31U A56U
The self-cleavage of the first is lower: 0.175 for the first, 0.489 for the second.

Going from C32A G82A to C32A A51U, the self-cleavage rises from 0.0361 to 0.256.

Compared with C30U G67A, C30U G39A is lower in self-cleavage: 0.578 for the first, 0.273 for the second.

First: G31C G82U
Second: G31C C49U
The self-cleavage of the first is lower: 0.128 for the first, 0.339 for the second.

First: G31C C49G
Second: C32A G59A
The self-cleavage of the first is lower: 0.253 for the first, 0.373 for the second.

Compared with C32A G59C, C30G C41A is lower in self-cleavage: 0.271 for the first, 0.0361 for the second.

First: G31U C49U
Second: G31U C49G
The self-cleavage of the first is higher: 0.302 for the first, 0.231 for the second.

First: C32G G38A
Second: G31U C41A
The self-cleavage of the first is lower: 0.0831 for the first, 0.136 for the second.

Compared with G31A G53A, C30A G50A is higher in self-cleavage: 0.487 for the first, 0.641 for the second.

First: G31C G39C
Second: G31C G39U
The self-cleavage of the first is lower: 0.0475 for the first, 0.277 for the second.

First: G31C G74A
Second: C30G G67U
The self-cleavage of the first is lower: 0.0573 for the first, 0.112 for the second.

First: C30G G67A
Second: C30A G31A
The self-cleavage of the first is lower: 0.0287 for the first, 0.0733 for the second.

First: C32A A42G
Second: C32A A42C
The self-cleavage of the first is lower: 0.0519 for the first, 0.162 for the second.

Going from G31A C75G to G31A C75A, the self-cleavage rises from 0.086 to 0.136.

Compared with C30G C44A, G31U G40U is higher in self-cleavage: 0.0875 for the first, 0.166 for the second.

Going from C32G G80A to C30G G53A, the self-cleavage falls from 0.0764 to 0.0482.

Going from G31A G81U to G31A G81A, the self-cleavage rises from 0.126 to 0.14.

Compared with G31A U79A, C30G G38A is lower in self-cleavage: 0.169 for the first, 0.14 for the second.

Going from C30U C41A to C30A G34U, the self-cleavage falls from 0.543 to 0.155.

First: G31C U60C
Second: G31C U60A
The self-cleavage of the first is higher: 0.525 for the first, 0.434 for the second.

First: C32G A71U
Second: C30U C62U
The self-cleavage of the first is lower: 0.115 for the first, 0.562 for the second.

Going from G31C C36U to C30A G80U, the self-cleavage rises from 0.0978 to 0.153.

Going from G31A G74C to G31A A77G, the self-cleavage rises from 0.182 to 0.339.

Going from G31A A77C to G31A G52A, the self-cleavage rises from 0.199 to 0.46.

First: C30G C32A
Second: C30A U60G
The self-cleavage of the first is lower: 0.115 for the first, 0.502 for the second.

Compared with G31U G82C, C32A A70U is lower in self-cleavage: 0.136 for the first, 0.0852 for the second.

Going from C32A A70G to G31C A78G, the self-cleavage rises from 0.285 to 0.302.

First: C32G G82C
Second: C32A G68U
The self-cleavage of the first is lower: 0.0652 for the first, 0.0906 for the second.

Going from C32A G68C to G31A G67A, the self-cleavage rises from 0.113 to 0.44.

Going from G31C C44G to G31A C49A, the self-cleavage rises from 0.135 to 0.353.

Going from G31A G55C to C30A G35A, the self-cleavage falls from 0.475 to 0.244.

First: C32G C64A
Second: C32A C66U
The self-cleavage of the first is lower: 0.0755 for the first, 0.315 for the second.

Compared with C30G G82C, C30A U79A is higher in self-cleavage: 0.0326 for the first, 0.386 for the second.

First: C30A U79G
Second: G31C G76C
The self-cleavage of the first is lower: 0.256 for the first, 0.609 for the second.

First: G31C G76A
Second: C32G C57U
The self-cleavage of the first is higher: 0.453 for the first, 0.0702 for the second.

Compared with C32A A78U, G31U C57A is higher in self-cleavage: 0.0923 for the first, 0.464 for the second.

In the case of C30U C66U, the self-cleavage is reported as 0.544.
